The record followed here is the supplement of paper PMC9170038.

This data set deals with MS2 coat protein. In words: apparent KD of MS2 coat protein; designed switch direction (-1 OFF switch, 1 ON switch): -1; higher = weaker reporter binding. Summed up: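 Designed RNA switches with common flanks were made on Illumina chips by stalled E. coli RNA polymerase. Titration with SNAP-549-labelled MS2 coat protein doubled from 0.7 or 1.5 nM up to 3 µM. Apparent KD is each design's median over clusters after curve-fitting normalised fluorescence.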

Setting [1] is: Eterna round: R95, input ligand: FMN 200 uM.
The mark [2] stands for this setting: Eterna round: R95, input ligand: microRNA oligo, concentration not stated.
[3] abbreviates: Eterna round: R95, input ligand: none.
[4] abbreviates: input ligand: microRNA oligo, concentration not stated.

“GCCAGAGCAGGAUAUUCAAUGUAUCACAUGAGGAUCACCCAUGUCCAGCGAAAGCUGGAGGGAGAAGGGCUCUGGC [Fiskers Ex 5 - 17] (puzzle: Exclusion 5)”: the “apparent KD of MS2 coat protein” value reads like this: under setting [1], 65.6 nM; under setting [2], 234 nM; under setting [3], 257 nM.

As for “AAUUUACAUGAGGAUCACCCAUGUCAGGAUAUGGUUUUAUUUUUUUUUUUUUUUGAUUCCAGAAGGGACAGUUA (puzzle: Exclusion 1)”, under setting [2], the “apparent KD of MS2 coat protein” value is 22.7 nM.

For “CUUAGCCUAAAAUCACGCAAGCUUUUUGCUUGUCUUAAGACAUGAGGAUCACCCAUGUCCGGGCUGAACUUAUGGAA [Zarebe] (puzzle: Sensor v3, turn-off variant 2)”, the “apparent KD of MS2 coat protein” value reads like this: under setting [1], 17.5 nM; under setting [2], 20.4 nM; under setting [3], 17.1 nM.

In the case of “UUAUCCCAUGUGAGGAUAUUAUUUUAAAGAUGCAAUGAGAAGGUACAUGAGGAUCACCCAUGUCCGCGAAAUAU [Eternabot (L2) Solution 57] (Eterna round: R97, puzzle: Brourd's mod of Exclusion 4)”, the “apparent KD of MS2 coat protein” value is, setting by setting: (input ligand: FMN 200 uM) 15.4 nM; (input ligand: none) 15.4 nM.

Regarding “AAGUACCGUCACGAUAGUGAUGGUACAACAAGCAUGUAAACAUGAGGAUCACCCAUGUCCUCAAUUGCUCGUCUUAU [Sensor 3 - 68] (Eterna round: R96, puzzle: Sensor v3, turn-off variant 2)”, the “apparent KD of MS2 coat protein” value reads like this: (input ligand: FMN 200 uM) 956 nM; under setting [4], 809 nM; (input ligand: none) 1060 nM.

For “ACGCGAUAUGGCGUAACGCGACAUGAGGAUCACCCAUGUAACGAGGAUAUGAUCUCGAGAGAGGGUCAGAAGGCGUUACAAUAU [Eternabot solution 23] (Eterna round: R96, puzzle: Exclusion NG 3)”, the “apparent KD of MS2 coat protein” value by setting is: (input ligand: FMN 200 uM) 130 nM; under setting [4], 70.7 nM; (input ligand: none) 74.3 nM.

Consider “UUUGUUUUGCAAGGAUAUGUUUAAUUUUAUUUUCCUUACACAUGAGGAUCACCCAUGUUAUUCUUACAGAAGGUGCGUAAUUUG [Excl-NG2-LRO05] (Eterna round: R96, puzzle: Exclusion NG 2)”, for which, under setting [4], the “apparent KD of MS2 coat protein” value was 171 nM.

Consider “UUCGGCGCAGGAUAUACAGUUUUGUGUUGAAUCGGCGCGAAACAUGAGGAUCACCCAUGUAGAAGGGUGUUGAA [-24.2, -22.3 kcal, A 27%] (Eterna round: R97, puzzle: Exclusion 2)”, for which the “apparent KD of MS2 coat protein” value reads like this: (input ligand: FMN 200 uM) 736 nM; (input ligand: none) 1220 nM.

“AAUUUAAUUAACAAGCUUUACAUGAGGAUCACCCAUGUGAUCAUGCUCGUCUUAGGUACAGGCUUCGGCCUGUACCA [Stov1/6-B1] (Eterna round: R97, puzzle: Sensor, turn-off variant 1)”: the “apparent KD of MS2 coat protein” value is 49.7 nM (input ligand: FMN 200 uM) and 55.5 nM (input ligand: none).

As for “UAUAUAUAGUAAGGAUAUGUAUUAAUUUGAUAAACAGAAGGUACUGACAUGAGGAUCACCCAUGUUUUAGUGUGGGCAUGUAGA [JMF's solution 84] (Eterna round: R96, puzzle: Exclusion NG 1)”, the “apparent KD of MS2 coat protein” value under setting [4] was found to be 75.6 nM.

“GCUUUUGGGCAAGGAUAUCCUGCGCGGUUCUGGUUCGUGUCUGUCACAUGAGGAUCACCCAUGUGGGAGAAGGUGCCUGUGGUG [Design 71] (Eterna round: R96, puzzle: Exclusion NG 2)”: the “apparent KD of MS2 coat protein” value runs as follows: (input ligand: FMN 200 uM) 38.1 nM; under setting [4], 16.9 nM; (input ligand: none) 23 nM.

Consider “AAACUACUAGGAUAUACAACGGUGUCCUAACUACUAAGAAAACAUGAGGAUCACCCAUGUAGAAGGAGUAGUGA [Lauslabe] (Eterna round: R96, puzzle: Exclusion 2)”, for which the “apparent KD of MS2 coat protein” value under setting [4] came out at 28.6 nM.

As for “CUUAGACAUGAGGAUCACCCAUGUGAGGAUAUGAUGCGAUCGUCGAAAGACGAUAGCAUCAGAAGGCACAUAUG [Fiskers Ex 1 - 6] (puzzle: Exclusion 1)”, the “apparent KD of MS2 coat protein” value under setting [2] worked out at 132 nM.

Take “GUGUGCAGAGGAUAUACAUAGUAAAAUAAAAUAUAAUAGGGACAUGAGGAUCACCCAUGUAGAAGGCUGAGUGU [Excluse me!! 23 - Jieux - Exclusion 2] (puzzle: Exclusion 2)”: the “apparent KD of MS2 coat protein” value came to 51.2 nM under setting [1], 41.7 nM under setting [2] and 46.1 nM under setting [3].

For “UCAUGUCCAGAGGAUAUGUAGAUCGAGAGAUCAACAGAAGGCUGGACAUGAGGAUCACCCAUGUGCGCCUUCAA [jl-ex3-4.29 ViennaUCT mod] (Eterna round: R97, puzzle: Exclusion 6)”, the “apparent KD of MS2 coat protein” value was 70.6 nM (input ligand: FMN 200 uM) and 188 nM (input ligand: none).

With “GAAAAGGGAGGAUAUACAAGAAGAAAAGAAAAGAAAAGAAAACAUGAGGAUCACCCAUGUAGAAGGCCCAAAAG [Default title] (puzzle: Exclusion 2)”, the “apparent KD of MS2 coat protein” value runs as follows: under setting [1], 22.6 nM; under setting [2], 18.7 nM; under setting [3], 23.8 nM.

Consider “AGUGUGGAGACAGGAUAUGAGAAUAGAUAGAAAUCAGAAGGGUCACAUGAGGAUCACCCAUGUAAAGUCUUGAGGAUGAGUGAU [Prohibition 2 - Jieux - Exclusion NG 1] (Eterna round: R96, puzzle: Exclusion NG 1)”, for which the “apparent KD of MS2 coat protein” value (input ligand: FMN 200 uM) came to 263 nM, the “apparent KD of MS2 coat protein” value under setting [4] stood at 63.9 nM and the “apparent KD of MS2 coat protein” value (input ligand: none) is 88.8 nM.

For “AAACUGAGGCUUUGCUUUAGUCGUACAUGAGGAUCACCCAUGUAGGAUAUGGUAGGCUUUGCUUACCAGAAGGACAGAGUGAUC [JL EXNG3 1.20] (Eterna round: R96, puzzle: Exclusion NG 3)”, the “apparent KD of MS2 coat protein” value runs as follows: (input ligand: FMN 200 uM) 80.5 nM; under setting [4], 404 nM; (input ligand: none) 279 nM.

Regarding “UGAUCUAGCGGAGGAUAUACAUGAGGAUCACCCAUGUAGAUAAGUGUACCGUAGUGCACUAUUGUGUAGAAGGCCGCUAGAUCU [JL ENG2 3.64] (Eterna round: R96, puzzle: Exclusion NG 2)”, the “apparent KD of MS2 coat protein” value turned out to be 30.5 nM (input ligand: FMN 200 uM), 9.35 nM under setting [4] and 11.9 nM (input ligand: none).

Regarding “UCUCGAAGGCAAGGAUAUCCUACAUUGUUCUGGCCCGGGCAUGCUACAUGAGGAUCACCCAUGUGGGAGAAGGUGCGCCACGGC [Design 29] (Eterna round: R96, puzzle: Exclusion NG 2)”, the “apparent KD of MS2 coat protein” value amounted to 31.6 nM (input ligand: FMN 200 uM), 32.9 nM under setting [4] and 43.1 nM (input ligand: none).

For the sequence “AUUGUGUGAGGAUAUUAGUAGUAAAUAAAUAAAAUUAUUACUGAGAAGGCACAUGAGGAUCACCCAUGUUCCUU [Salish 062 v5] (Eterna round: R97, puzzle: Exclusion 4)”, the “apparent KD of MS2 coat protein” value runs as follows: (input ligand: FMN 200 uM) 131 nM; (input ligand: none) 18.9 nM.

Consider “UUUGUCUGUGUGAGGAUAUACUUUGUUUGGUCGUUGUAGAAGGCACAUGAGGAUCACCCAUGUAUUUUGUUGUG [JR_BME4_Sub015] (puzzle: Brourd's mod of Exclusion 4)”, for which the “apparent KD of MS2 coat protein” value under setting [2] amounted to 26.9 nM.

For the sequence “GGUUGGCGAGGAUAUACAUGAGGAUCACCCAUGUGAGAGAAAAAAGUGAGGAAGAAAAGUAGAAGGCGUUGACG [salish99_ex3_r3_052] (puzzle: Exclusion 3)”, the “apparent KD of MS2 coat protein” value reads like this: under setting [1], 66.2 nM; under setting [2], 48.3 nM; under setting [3], 42.8 nM.

As to “CUUAAACAUGAGGAUCACCCAUGUCAGGAUAUGAUACUAUGUACUUCGGUACAUAGUAUCAGAAGGGAUAUGAA [Ex1-3: 64] (puzzle: Exclusion 1)”, under setting [2], the “apparent KD of MS2 coat protein” value came to 43.1 nM.

As for “ACAUGAGGAUCACCCAUGUCCGGCUGGUCUGUUUCGGUUGUCGAGGAUAUAGUUCGGUGUUCGCGCUAGAAGGUGGGAGCUGGG [Aenatbe mod 56] (Eterna round: R96, puzzle: Exclusion NG 3)”, the “apparent KD of MS2 coat protein” value is, setting by setting: (input ligand: FMN 200 uM) 161 nM; under setting [4], 116 nM; (input ligand: none) 147 nM.

“AAAAAGCUGAGAGGAUAUGGUGCCGAAACGGUGCUAGAAGGCUUUGCAAAAAAACAUGAGGAUCACCCAUGUUCAUGUAGAGAA [AK ExNG1-1.2] (Eterna round: R96, puzzle: Exclusion NG 1)”: the “apparent KD of MS2 coat protein” value is, setting by setting: (input ligand: FMN 200 uM) 15.8 nM; under setting [4], 11.8 nM; (input ligand: none) 19.6 nM.

As to “AGAGUGCUGCGAGGAUAUACAUGAGGAUCACCCAUGUGGUCCUGUGAGGGAAAACCUCACAGGAUGUAGAAGGCGCAGUACUCA [Mat - Exclusion NG 2 - Mod of JL - D47] (Eterna round: R96, puzzle: Exclusion NG 2)”, the “apparent KD of MS2 coat protein” value by setting is: (input ligand: FMN 200 uM) 53.2 nM; under setting [4], 10.9 nM; (input ligand: none) 16.3 nM.

As to “UACUAAAAGGAGGAUAUCGUAUCGGAAACGAUACGAGAAGGCUUAACAUGAGGAUCACCCAUGUUCUUCAAUAU [Mat - Exclusion 6 - Eli Mod - D92] (puzzle: Exclusion 6)”, the “apparent KD of MS2 coat protein” value reads like this: under setting [1], 18.2 nM; under setting [2], 16 nM; under setting [3], 14.8 nM.

On to “UAAUGUAUAUAGGAUAUCUAGCUGGAAACAGCUAGAGAAGGAUGUACAUGAGGAUCACCCAUGUAAAUCAAUAA [Ex6/9-A1] (Eterna round: R97, puzzle: Exclusion 6)”, for which the “apparent KD of MS2 coat protein” value reads like this: (input ligand: FMN 200 uM) 57.5 nM; (input ligand: none) 19.5 nM.

“UUUAGUUCAGGAUAUGUAGAUUUUAACAUGAGGAUCACCCAUGUCGAUCCUGAAUUAACUACAGAAGGGAACAUUU [Mod of Brourd 4 - Jieux - Exclusion 5] (Eterna round: R97, puzzle: Exclusion 5)”: the “apparent KD of MS2 coat protein” value (input ligand: FMN 200 uM) came out at 64 nM and the “apparent KD of MS2 coat protein” value (input ligand: none) amounted to 18.8 nM.
